Data: publication PMC10397247
Values belong to the binder of their own block, whether it stands above or below them.

Key:
[1] = molecular target: T1, P7bH1; test: two-hybrid library CCNG1;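 also: natural log of median RNA to DNA barcode read ratio; higher means stronger binding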
T1 chain: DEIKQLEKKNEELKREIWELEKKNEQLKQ

[2] = molecular target: T2, P9bH1; test: two-hybrid library CCNG1;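 also: natural log of median RNA to DNA barcode read ratio; higher means stronger binding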
T2 chain: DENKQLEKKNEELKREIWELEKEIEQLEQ

[3] = molecular target: T3, P6bH1; test: two-hybrid library CCNG1;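 also: natural log of median RNA to DNA barcode read ratio; higher means stronger binding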
T3 chain: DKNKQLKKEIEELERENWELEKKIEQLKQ

[4] = molecular target: T4, P8bH1; test: two-hybrid library CCNG1;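 also: natural log of median RNA to DNA barcode read ratio; higher means stronger binding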
T4 chain: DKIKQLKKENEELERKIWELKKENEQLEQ

[5] = molecular target: T5, P8A-bP; test: two-hybrid library CCNG1;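 also: natural log of median RNA to DNA barcode read ratio; higher means stronger binding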
T5 chain: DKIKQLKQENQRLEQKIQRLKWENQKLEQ

[6] = molecular target: T6, P7A-bP; test: two-hybrid library CCNG1;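 also: natural log of median RNA to DNA barcode read ratio; higher means stronger binding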
T6 chain: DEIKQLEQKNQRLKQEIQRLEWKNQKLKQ

[7] = molecular target: T7, P9A-bP; test: two-hybrid library CCNG1
T7 chain: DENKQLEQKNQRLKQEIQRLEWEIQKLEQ

[8] = molecular target: T8, 4H58-AA; test: two-hybrid library CCmax; conditions: mean of both orientations
T8 chain: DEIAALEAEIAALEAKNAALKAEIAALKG

[9] = molecular target: T9, 4H3365-AA; test: two-hybrid library CCmax; conditions: mean of both orientations
T9 chain: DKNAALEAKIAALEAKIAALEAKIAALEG

[10] = molecular target: T10, 4H3782-AA; test: two-hybrid library CCmax; conditions: mean of both orientations
T10 chain: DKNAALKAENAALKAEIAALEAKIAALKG

[11] = molecular target: GCN2_T; test: two-hybrid library CCmax
[12] = molecular target: T11, 4H535-AA; test: two-hybrid library CCmax; conditions: mean of both orientations
T11 chain: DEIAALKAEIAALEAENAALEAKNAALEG

[13] = molecular target: T12, 4H_BCR; test: two-hybrid library CCmax; conditions: mean of both orientations
T12 chain: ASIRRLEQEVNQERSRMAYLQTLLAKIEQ

[14] = molecular target: T13, 4H355-AA; test: two-hybrid library CCmax; conditions: mean of both orientations
T13 chain: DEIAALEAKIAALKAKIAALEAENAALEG

[15] = molecular target: T14, 4H_APH; test: two-hybrid library CCmax; conditions: mean of both orientations
T14 chain: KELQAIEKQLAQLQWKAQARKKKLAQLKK

[16] = molecular target: T15, 4H895-AA; test: two-hybrid library CCmax; conditions: mean of both orientations
T15 chain: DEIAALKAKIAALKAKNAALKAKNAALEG

[17] = molecular target: 4H_GCN4; test: two-hybrid library CCmax; conditions: mean of both orientations
[18] = molecular target: T16, 4H3020-AA; test: two-hybrid library CCmax
T16 chain: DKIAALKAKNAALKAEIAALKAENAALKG

[19] = molecular target: T17, 4H3651-AA; test: two-hybrid library CCmax; conditions: mean of both orientations
T17 chain: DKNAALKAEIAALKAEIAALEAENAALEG

[20] = molecular target: T18, 4H465-AA; test: two-hybrid library CCmax; conditions: mean of both orientations
T18 chain: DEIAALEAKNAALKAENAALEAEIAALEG

[21] = molecular target: T19, 4H3705-AA; test: two-hybrid library CCmax; conditions: mean of both orientations
T19 chain: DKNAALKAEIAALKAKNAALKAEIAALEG

[22] = molecular target: T20, 4H486-AA; test: two-hybrid library CCmax; conditions: mean of both orientations
T20 chain: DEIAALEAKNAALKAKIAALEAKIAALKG

[23] = molecular target: T21, P7; test: two-hybrid library CC1; conditions: mean of both orientations
T21 chain: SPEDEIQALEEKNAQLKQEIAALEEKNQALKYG

[24] = molecular target: T22, P6SC1; test: two-hybrid library CC1; conditions: mean of both orientations
T22 chain: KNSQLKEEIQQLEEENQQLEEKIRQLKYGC

[25] = molecular target: T23, P7mS; test: two-hybrid library CC1; conditions: mean of both orientations
T23 chain: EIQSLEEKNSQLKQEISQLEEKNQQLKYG

[26] = molecular target: T24, P5SC2; test: two-hybrid library CC1
T24 chain: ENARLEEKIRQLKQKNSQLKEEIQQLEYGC

[27] = molecular target: T25, P6SC2; test: two-hybrid library CC1; conditions: mean of both orientations
T25 chain: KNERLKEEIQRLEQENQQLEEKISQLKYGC

[28] = molecular target: T26, P6; test: two-hybrid library CC1; conditions: mean of both orientations
T26 chain: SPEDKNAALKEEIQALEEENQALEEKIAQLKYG

[29] = molecular target: T27, P8mS; test: two-hybrid library CC1; conditions: mean of both orientations
T27 chain: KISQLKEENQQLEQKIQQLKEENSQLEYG

[30] = molecular target: T28, P5mS; test: two-hybrid library CC1; conditions: mean of both orientations
T28 chain: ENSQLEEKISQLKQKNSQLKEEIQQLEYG

[31] = molecular target: T29, P8; test: two-hybrid library CC1; conditions: mean of both orientations
T29 chain: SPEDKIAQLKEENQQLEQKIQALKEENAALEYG

[32] = molecular target: T30, P9; test: two-hybrid library CC1; conditions: mean of both orientations
T30 chain: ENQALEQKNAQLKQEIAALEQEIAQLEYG

[33] = molecular target: T31, P6mS; test: two-hybrid library CC1; conditions: mean of both orientations
T31 chain: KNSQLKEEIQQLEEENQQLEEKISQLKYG

[34] = molecular target: T32, 4H2692-bN; test: two-hybrid library CCNG1
T32 chain: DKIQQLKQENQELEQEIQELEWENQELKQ

[35] = molecular target: T33, 4H918-bH; test: two-hybrid library CCNG1
T33 chain: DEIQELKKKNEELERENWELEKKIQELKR

[36] = molecular target: T34, 4H3277-bN; test: two-hybrid library CCNG1
T34 chain: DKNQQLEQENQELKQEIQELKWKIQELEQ

[37] = molecular target: T35, 4H40-bN; test: two-hybrid library CCNG1
T35 chain: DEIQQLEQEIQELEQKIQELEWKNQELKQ

[38] = molecular target: T36, 4H477-bN; test: two-hybrid library CCNG1
T36 chain: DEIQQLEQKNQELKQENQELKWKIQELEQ

[39] = molecular target: T37, 4H319-bN; test: two-hybrid library CCNG1
T37 chain: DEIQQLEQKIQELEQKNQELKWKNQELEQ

[40] = molecular target: T38, 4H3057-bN; test: two-hybrid library CCNG1
T38 chain: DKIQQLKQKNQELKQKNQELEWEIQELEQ

[41] = molecular target: T39, 4H2839-bN; test: two-hybrid library CCNG1
T39 chain: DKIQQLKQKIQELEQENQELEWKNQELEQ

[42] = molecular target: T40, 4H492-bN; test: two-hybrid library CCNG1
T40 chain: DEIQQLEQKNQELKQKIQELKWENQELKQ

[43] = molecular target: T41, 4H741-bN; test: two-hybrid library CCNG1
T41 chain: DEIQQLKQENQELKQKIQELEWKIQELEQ

[44] = molecular target: T42, 4H2717-bN; test: two-hybrid library CCNG1
T42 chain: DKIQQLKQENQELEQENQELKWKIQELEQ

[45] = molecular target: T43, 4H2915-bN; test: two-hybrid library CCNG1
T43 chain: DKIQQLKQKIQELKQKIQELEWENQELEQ

[46] = molecular target: T44, 4H348-bN; test: two-hybrid library CCNG1
T44 chain: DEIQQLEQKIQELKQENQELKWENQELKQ

[47] = molecular target: T45, O4-bP; test: two-hybrid library CCNG1
T45 chain: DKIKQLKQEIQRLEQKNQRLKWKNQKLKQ

[48] = molecular target: T46, O5-bP; test: two-hybrid library CCNG1
T46 chain: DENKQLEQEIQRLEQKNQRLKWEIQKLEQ

[49] = molecular target: T47, O6-bP; test: two-hybrid library CCNG1
T47 chain: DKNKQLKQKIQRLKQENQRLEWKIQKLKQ

[50] = molecular target: T48, O7-bP; test: two-hybrid library CCNG1
T48 chain: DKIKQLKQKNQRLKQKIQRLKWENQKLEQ

[51] = molecular target: T49, O9-bP; test: two-hybrid library CCNG1
T49 chain: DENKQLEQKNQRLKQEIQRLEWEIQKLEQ

[52] = molecular target: T50, O8-bP; test: two-hybrid library CCNG1
T50 chain: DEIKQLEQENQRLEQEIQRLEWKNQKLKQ

[53] = molecular target: T51, O3-bP; test: two-hybrid library CCNG1
T51 chain: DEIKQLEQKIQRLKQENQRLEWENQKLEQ

[54] = molecular target: T52, P8A; test: two-hybrid library CCNG1
T52 chain: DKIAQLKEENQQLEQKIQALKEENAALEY

[55] = molecular target: T53, P9A; test: two-hybrid library CCNG1
T53 chain: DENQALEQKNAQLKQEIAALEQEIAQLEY

[56] = molecular target: T54, P7A; test: two-hybrid library CCNG1
T54 chain: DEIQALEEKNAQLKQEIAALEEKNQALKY

[57] = molecular target: T55, O9-bN; test: two-hybrid library CCNG1
T55 chain: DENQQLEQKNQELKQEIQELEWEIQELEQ

[58] = molecular target: T56, O6-bN; test: two-hybrid library CCNG1
T56 chain: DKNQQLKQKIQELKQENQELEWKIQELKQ

[59] = molecular target: T57, O8-bN; test: two-hybrid library CCNG1
T57 chain: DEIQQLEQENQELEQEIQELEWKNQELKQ

[60] = molecular target: T58, O7-bN; test: two-hybrid library CCNG1
T58 chain: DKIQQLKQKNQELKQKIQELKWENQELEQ

[61] = molecular target: T59, O5-bN; test: two-hybrid library CCNG1
T59 chain: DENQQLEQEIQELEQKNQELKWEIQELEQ

[62] = molecular target: T60, O4-bN; test: two-hybrid library CCNG1
T60 chain: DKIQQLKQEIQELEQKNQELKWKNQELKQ

4H_GCN4, sequence (chain, as listed by the source): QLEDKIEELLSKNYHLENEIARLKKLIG

interaction score [1]: -0.0541
interaction score [2]: -0.3
interaction score [4]: 1.89
Binder: DEIKQLEKKNEELKREIWELEKKNEQLKQ [P7bH1]

interaction score [8]: -0.528
interaction score [9]: -1.49
interaction score [10]: -1.57
interaction score [11]: -0.848
interaction score [12]: -1.47
interaction score [13]: -1.87
interaction score [14]: -1.86
interaction score [15]: -2.43
interaction score [16]: -1.5
interaction score [17]: -0.937
interaction score [18]: 0.962
interaction score [19]: -1.36
interaction score [20]: -1.7
interaction score [21]: -1.78
interaction score [22]: -1.33
Binder: DKIAALKAKNAALKAEIAALKAENAALKG [4H3020-AA]

interaction score [47]: 1.15
interaction score [48]: -1.53
interaction score [49]: -0.828
interaction score [50]: -1.61
interaction score [51]: -1.8
interaction score [52]: -0.905
interaction score [53]: -0.797
Binder: DEIKQLEQKIQRLKQENQRLEWENQKLEQ [O3-bP]

interaction score [54]: 2.24
interaction score [55]: -0.697
interaction score [56]: -0.598
Binder: DEIQALEEKNAQLKQEIAALEEKNQALKY [P7A]

interaction score [5]: -0.396
interaction score [7]: 0
Binder: DKIKQLKQENQRLEQKIQRLKWENQKLEQ [P8A-bP]

The next lines start with the binder.

Binder: DKNKQLKKEIEELERENWELEKKIEQLKQ [P6bH1]
interaction score [1]: 1.39
interaction score [2]: 0.0468
interaction score [3]: -0.419
interaction score [4]: 0.525

Binder: DEIKQLEQKNQRLKQEIQRLEWKNQKLKQ [P7A-bP]
interaction score [5]: 1.1
interaction score [6]: -1.33
interaction score [7]: -0.571

Binder: ENARLEEKIRQLKQKNSQLKEEIQQLEYGC [P5SC2]
interaction score [23]: -2.39
interaction score [24]: 0.316
interaction score [25]: -2.77
interaction score [26]: -2.86
interaction score [27]: 0.408
interaction score [28]: 0.225
interaction score [29]: -2.45
interaction score [30]: -2.94
interaction score [31]: -1.1
interaction score [32]: -2.39
interaction score [33]: 0.24

Binder: DKIQQLKQENQELEQEIQELEWENQELKQ [4H2692-bN]
interaction score [34]: 0.234
interaction score [35]: 1.17
interaction score [36]: -0.49
interaction score [37]: -0.333
interaction score [38]: -0.405
interaction score [39]: -0.482
interaction score [40]: 0.294
interaction score [41]: -0.832
interaction score [42]: 1.22
interaction score [43]: -0.795
interaction score [44]: -0.423
interaction score [45]: -0.419
interaction score [46]: 0.502

Binder: DKIKQLKKENEELERKIWELKKENEQLEQ [P8bH1]
interaction score [2]: -0.01
interaction score [4]: -0.114

Binder: DKIQQLKQEIQELEQKNQELKWKNQELKQ [O4-bN]
interaction score [57]: -0.542
interaction score [58]: 0.639
interaction score [59]: -0.553
interaction score [60]: -0.226
interaction score [61]: -0.492
interaction score [62]: -0.666
